Experimental data as given in the supplement of paper PMC10567573.
± gives the standard deviation.

Experiment: protein stability index of a GFP-peptide fusion (GPS, HEK-293T) (PSI 1-6); higher = more stable
[1] = treatment: DMSO, c terminus: a fixed tail appended
[2] = treatment: MLN4924 1 uM, 8 h, c terminus: a fixed tail appended
[3] = treatment: DMSO, c terminus: native
[4] = treatment: MLN4924 1 uM, 8 h, c terminus: native
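Note: 24-mer peptide tiles fused after GFP, lentivirally expressed, FACS-sorted into six equal bins by GFP/DsRed ratio, decoded by Illumina sequencing, PSI is the read-weighted mean bin number.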

Sequence | protein stability index [1] | protein stability index [2] | protein stability index [3] | protein stability index [4]
RQKTSGPSVIQEIHQESGKAPSTD [C10orf62] | 5.41 ± 0.073 | 5.4 ± 0.057 | – | –
RRARINESLQELRLLLAGAEVQAK [HES6] | 2.62 ± 0.3 | 2.84 ± 0.77 | – | –
RRDAEEWFHAKSAELNKEVSTNTA [KRT13] | 4.71 ± 0.25 | 4.79 ± 0.1 | – | –
RRFSSEDLEDPLGGLLSYDEGGIT [FBF1] | 4.57 ± 0.21 | 4.56 ± 0.16 | – | –
RRKIRELQLRYSLRILIGDPPHHD [BEX5] | 2.42 ± 0.42 | 2.07 ± 0.23 | – | –
RSCAIVEDDGLQSAFTAAHELGHV [ADAMTS4] | 3.62 ± 0.43 | 3.55 ± 0.2 | – | –
RSLILDDRGLRGFPKNRVLEGVID [TRIM9] | 3.16 ± 0.2 | 3.47 ± 0.41 | – | –
RSRYDGHRIWMYNCHIGGSFSEET [LOXL2] | 2.17 ± 0.35 | 2.72 ± 0.35 | – | –
RSSFANQGEICLCTSRIFVQKSIY [ALDH8A1] | 2.03 ± 0.41 | 2.13 ± 0.24 | – | –
RTALEYCKLILSLEPDEDPLCMLL [TCF25] | 2.24 ± 0.36 | 2.32 ± 0.3 | – | –
RTCFSPASDGSDFTFLRPLSVQQP [PCDHGC5] | 2.77 ± 0.23 | 2.78 ± 0.22 | – | –
RTDLKDLIIFDKQSSQRMRQNLKL [CEP70] | 2.93 ± 0.24 | 2.93 ± 0.32 | – | –
RTDPNGDYIRRYLPVLRGFPAKYI [CRY1] | 2.27 ± 0.3 | 2.42 ± 0.39 | – | –
RTMCAVLGLVARQEDSGLRDHSVR [AUP1] | 2.43 ± 0.33 | 2.76 ± 0.26 | – | –
RTPLHYAAANCHFHCIETLVTTGA [ANKRD44] | 2.36 ± 0.57 | 2.44 ± 0.5 | – | –
RVRKEAMMGLAQIYKKYALQSAAG [PDS5B] | 2.2 ± 0.37 | 2.14 ± 0.34 | – | –
RVSRKPTAAMRCMCPLYDPNRQLW [GAN] | 2.48 ± 0.67 | 2.34 ± 0.47 | – | –
RVYVSGLMKGGADLFVENMPGFPD [APMAP] | 2.56 ± 0.34 | 2.7 ± 0.35 | – | –
RYDAEVVAIAQKFAALRASLVAPL [MYORG] | 2.55 ± 0.17 | 2.01 ± 0.17 | – | –
SASECMQDFNTMFTNCYIYNKPTD [BRD3] | 3.1 ± 0.23 | 3.08 ± 0.45 | – | –
SCSLVLEHQPDNIKALFRKGKVLA [FKBP8] | 2.76 ± 0.15 | 2.68 ± 0.26 | – | –
SCTIIFLASIFQLAMWTTALLHQA [TMEM175] | 2.5 ± 0.2 | 3.17 ± 0.54 | – | –
SDARVVKDMATGKSKGYGFVSFFN [TIA1] | 2.79 ± 0.35 | 2.77 ± 0.16 | – | –

Sequence | protein stability index [1] | protein stability index [2] | protein stability index [3] | protein stability index [4]
SDRRKEKDPKAGDSKSGGSGSESD [DVL3] | 5.69 ± 0.32 | 5.55 ± 0.15 | – | –
SDTYRCEERSPSFGEDYYGPSRSR [CLK3] | 4.47 ± 0.12 | 4.52 ± 0.2 | – | –
SEDQKRLKQAKELDRERAAANEQL [CHCHD3] | 5.48 ± 0.17 | 5.57 ± 0.21 | – | –
SEHVLKKAHKYSELIILYEKKGLH [VPS39] | 2.08 ± 0.23 | 2.27 ± 0.34 | – | –
SERDSEAAKQNHVTADDFVQTSVI [EHMT1] | 5.34 ± 0.45 | 5.35 ± 0.34 | – | –
SETHAAGHSQEKTHSREKSSQESG [CHGB] | 5.67 ± 0.22 | 5.57 ± 0.16 | – | –
SFARDLPDFPSINMDPAGLDDEDD [RETREG3] | 5.41 ± 0.32 | 5.49 ± 0.098 | – | –
SFEHRVRGVRRTASTPTPDDKLFQ [CPN1] | 4.3 ± 0.31 | 4.37 ± 0.3 | – | –
SFLKQKEQLEAEAQALRQELERQR [PBXIP1] | 4.43 ± 0.39 | 4.52 ± 0.088 | – | –
SFSVLNWDQVSRLHEVLTEVVPIH [TENT5C] | 2.26 ± 0.28 | 2.3 ± 0.27 | – | –
SGGGSTSAAGIEARSRALRRRWCP [SPACA3] | 3.95 ± 0.12 | 4 ± 0.13 | – | –
SGGSYRDSYESYGNSRSAPPTRGP [RBMX] | 4.3 ± 0.27 | 3.83 ± 0.38 | – | –
SGLIEIQSYPLCIYLINQKWFGRK [SLC22A15] | 2.47 ± 0.59 | 2.19 ± 0.2 | – | –
SGSDVLDNVAYARAFNTDHQTQLL [RAD51] | 3.66 ± 0.21 | 3.73 ± 0.12 | – | –
SGSRPRKPPPRKHTRSWAVLKLLL [LRRC59] | 2.39 ± 0.37 | 2.31 ± 0.28 | – | –
SIAPPEAEGVVLSDSPDAADSTSF [PPTC7] | 5.34 ± 0.61 | 5.29 ± 0.76 | – | –
SIRILDELVLPFQELQIDDNEYAY [HNF4A] | 3.46 ± 0.26 | 3.44 ± 0.26 | – | –
SISDLSEHVFDLILELYNIDSHLL [PDS5B] | 2.49 ± 0.89 | 2.25 ± 0.81 | – | –
SITHYRPVSASRSSLDLSYYPTSS [EMD] | 3 ± 0.26 | 3.23 ± 0.19 | – | –
SKATFSRNIMNLIDIVAIIPYFIT [KCNA3] | 3.16 ± 0.52 | 3.32 ± 0.76 | – | –
SKPKTFQAYLDDCHRRYSCAHCRA [YPEL3] | 2.41 ± 0.55 | 3.04 ± 0.59 | – | –
SKQSPPMASSPIQPRKGGADWLGL [FBF1] | 3.23 ± 0.47 | 3.48 ± 0.42 | – | –
SLGERMNTFVRYLLKRIKKCCGMR [KCNK9] | 3.38 ± 0.14 | 2.83 ± 0.32 | – | –

Sequence | protein stability index [1] | protein stability index [2] | protein stability index [3] | protein stability index [4]
SLIQLLGRNFILFIIFGTMEEMQN [HACD3] | 2.92 ± 0.67 | 3.01 ± 1.3 | – | –
SLLDVQRVPSFESFEDDCSQSLCL [ETS2] | 3.9 ± 0.53 | 3.67 ± 0.54 | – | –
SLLGDDVFSTMAGLEEADAEVSVI [FBF1] | 3.56 ± 0.26 | 3.5 ± 0.22 | – | –
SLLRGFLLQNEFVGFMWRQRGRVI [MCOLN1] | 2.29 ± 0.2 | 2.13 ± 0.2 | – | –
SLPSPSSSGHQNRRFSSEDLEDPL [FBF1] | 5.45 ± 0.3 | 5.46 ± 0.29 | – | –
SLVWGMVCGQNWGIVEAMVVCRQL [LOXL2] | 2.46 ± 0.82 | 3.07 ± 0.36 | – | –
SMFTLPVVYVKHQAQIDQYLGLVR [RTN1] | 2.5 ± 0.49 | 2.23 ± 0.41 | – | –
SMVVPLLSLHVKSLGASPTVAGIV [MFSD9] | 2.95 ± 0.36 | 2.4 ± 0.46 | – | –
SNKKRPSLDGRDPGNGTHGLSPEE [ELOA2] | 5.36 ± 0.27 | 5.33 ± 0.23 | – | –
SPLGALQHGFFRRTADEATNTGPA [DYRK1B] | 4.38 ± 0.16 | 4.57 ± 0.053 | – | –
SQSPSVSQLSVLSLSGVMLTDVSP [PRAME] | 3 ± 0.49 | 3 ± 0.33 | – | –
SQVCRVAYEIMQTLHPDASANFHS [FUT8] | 2.34 ± 0.36 | 2.27 ± 0.42 | – | –
SRVTAFLDDLSQKLKPLGEAEREF [NLN] | 2.84 ± 0.07 | 3.12 ± 0.51 | – | –
SRYLGDSGLDDFFLDIDTSAVEKE [SERTAD3] | 5.31 ± 0.12 | 4.9 ± 0.55 | – | –
SSAGSAEQTAPGDSTGYMEVSLDS [EHMT1] | 5.29 ± 0.35 | 5.33 ± 0.12 | – | –
SSAPRDVQARMLSSTTILVQWKEP [PTPRD] | 2.83 ± 0.47 | 2.79 ± 0.15 | – | –
SSCSSTSGGGGGGGGGGGGGKSGG [CCDC6] | 5.17 ± 0.065 | 5 ± 0.51 | – | –
SSFQDLLGDALAGPPRAPGRSGWP [HES6] | 3.13 ± 0.12 | 3.11 ± 0.18 | – | –
SSIECYDPIIDSWEVVTSMGTQRC [KLHL12] | 2.95 ± 0.2 | 3.24 ± 0.49 | – | –
SSKLVTKKAPQPAKPRLAERMTTR [HDAC6] | 4.32 ± 0.14 | 4.47 ± 0.38 | – | –
SSLCYKQRIKSQERETEATRGRGG [MOG] | 5 ± 0.27 | 5.06 ± 0.32 | – | –
SSSSECLEDSTMGSVADTVARVLR [PLK2] | 4.08 ± 0.22 | 4.03 ± 0.34 | – | –
SSYPVCVSKVVKGGSSGKGTTLRG [OAS1] | 4.11 ± 0.39 | 4.18 ± 0.19 | – | –

Sequence | protein stability index [1] | protein stability index [2] | protein stability index [3] | protein stability index [4]
STIVVMLTKLREMGREKCHQYWPA [PTPRD] | 2.55 ± 0.22 | 2.63 ± 0.44 | – | –
STMSLNIITVTLNMEKYNFLGISI [DVL3] | 3.3 ± 0.42 | 2.89 ± 0.33 | – | –
STTNSTAAKPAASITSKPATLTTT [ZNF207] | 4.39 ± 0.25 | 4.41 ± 0.081 | – | –
STVGKLCRLINEDVNEQVMQVLGP [CEP70] | 3.08 ± 0.19 | 3.2 ± 0.25 | – | –
SVFLLTLSIAFICCAQVKVSHLL [PHTF1] | – | – | 3.3 ± 0.35 | 3.23 ± 0.53
SVLKRPERSQEESPPGSTKRRKSM [CDC25A] | 5.29 ± 0.29 | 5.5 ± 0.2 | – | –
SVMVMREILDYIFSGQIRLNEDTI [GAN] | 2.53 ± 0.51 | 2.32 ± 0.64 | – | –
SVSCCHGNTLLAVRSVTDEPVPP [NEK8] | – | – | 3.38 ± 0.17 | 3.48 ± 0.077
SVSREARQTVPPLTVRLHTQSVSE [PWWP2B] | 4.29 ± 0.23 | 4.42 ± 0.28 | – | –
SVSWWGLSPALDLQAESPPVDPDS [DNAAF3] | 4.85 ± 0.12 | 4.944 ± 0.047 | – | –
SVVLRRARGGAVSARYVLPDEAAR [DUSP5] | 3.56 ± 0.33 | 3.55 ± 0.26 | – | –
TACSLPLCACLLGQKMLRHCGRT [PXN] | – | – | 3.03 ± 0.76 | 2.28 ± 0.4
TALGDKKSLEGDLEDLKDQIAQLE [LMNB1] | 5.21 ± 0.24 | 5.27 ± 0.24 | – | –
TAPRQEKHERTHEIIPINVNNNYE [SPRY1] | 4.68 ± 0.15 | 4.61 ± 0.38 | – | –
TATDGGSPPLSTEAHFMLQVADIN [PCDHGA10] | 4.18 ± 0.089 | 4.19 ± 0.16 | – | –
TCAPSVSYFKCVQKEVLPSMRKIV [CCND1] | 2.33 ± 0.13 | 2.35 ± 0.33 | – | –
TCLMISCYKGHKEIAQYLLEKGAD [FEM1C] | 2.29 ± 0.39 | 2.05 ± 0.27 | – | –
TDAGKAFCMFYAVLGIPLTLVMFQ [KCNK9] | 3.35 ± 0.4 | 3.06 ± 0.31 | – | –
TEKDLLEDGFGEHPFYHCLVAEVP [SAT1] | 3.35 ± 0.32 | 3.41 ± 0.37 | – | –
TEQGFGEDLEDLGAVAPPVSGDLT [NFE2L1] | 5.388 ± 0.027 | 5.26 ± 0.55 | – | –
